Reference: patent US20200113997A1 (published 2020)
Residue numbers refer to the chain shown, from its start.

T1: Man9-V3 glycopeptide (cyclic)
T1 peptide: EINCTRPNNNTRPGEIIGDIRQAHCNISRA

B1: DH270.2 (antibody, V domains shown)
VH: QVQLVQSGAEMKKPGASVRVSCKASGYTFTDYYIHWVRQAPGQGPEWMGWINPSTGRTNSPQKFQGRVIMTRDTSISTAYMDLNRLTSDDTAMYYCTTGGWIGLYSDTSGYPNFDYWGQGTLVTVSS
VL: QSALTQPASVSGSPGQSITISCTGTNYDVGSYNLVSWYQQHPGKVPKYIIYEVNKRPSGVSNRFSGSKSGNTASLTISGLQAEDEADYYCCSYAGSSIIFFGGGTKLTVI
B2: DH270.3 (antibody, V domains shown)
VH: QVQLVQSGAEMKNPGASVKVSCAASGYTFTDFYIHWVRLAPGQGLEWMGWMNPKTGRTNNAQNFQGRVIMTRDTSIGTAYMELRRLTSDDTAVYYCVTGGWISPYYDSSYYPNFDHWGQGTLVTVSS
VL: QSALTQPASVSGSPGQSITISCTGTSYDVGKFDLVSWYQQHPGKAPKYMIYEVNKWPSGVSHRFSGSKSGNTASLTISGLQAEDEADYYCCSFGGSATVVCGGGTKVTVL
B3: DH270.5 (antibody, V domains shown)
VH: B2 VH with M11V, A24P, M48L, N60Q, A61G, R85S, G100A, P104D
VL: B2 VL with Q1L, S2P, A3V, S26I, Q40H, M49L, N54K, A82V, T98A
B4: DH270.4 (antibody, V domains shown)
VH: B2 VH with Q1E, T28G, Q43H, E46Q, N63D, M70L, V123I
VL: B2 VL with G30A, Y38F

Target: T1, Man9-V3 glycopeptide
Assay: BLI

Binder | Kd
B1 | 4770 nM
B2 | 195 nM
B3 | 281 nM
B4 | 346 nM
